# The supplement of paper PMC9112550, “Optimization of the antimicrobial peptide Bac7 by deep mutational scanning” (BMC Biology, 2022)
# Test system: Escherichia coli TOP10
# Experiment: shrunken log2 fold change of peptide-encoding DNA abundance (4.5 h post-induction vs induction); higher = less antimicrobial activity (less host growth inhibition)
# Conditions: time post-induction: 4.5 h; library: site-saturation at positions 5, 18, 19, 20
# 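Note: peptides expressed intracellularly from a pBAD plasmid library in pooled LB shake-flask culture, induced with 0.3% L-arabinose, DNA abundance read by NGS, three biological replicates, DESeq2 with apeglm shrinkage.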
row,Sequence,shrunken log2 fold change
1,RRIRVRPPRLPRPRPRPLYVPRP,-0.705
2,RRIRERPPRLPRPRPRPKSCPRP,-0.00876
3,RRIRARPPRLPRPRPRPWQLPRP,-0.106
4,RRIRFRPPRLPRPRPRPGLIPRP,-0.0301
5,RRIRRRPPRLPRPRPRPYCIPRP,-0.264
6,RRIRARPPRLPRPRPRPLHWPRP,0.387
7,RRIRYRPPRLPRPRPRPCSVPRP,-1.08
8,RRIRYRPPRLPRPRPRPQYAPRP,-0.262
9,RRIRGRPPRLPRPRPRPDRFPRP,0.375
10,RRIRQRPPRLPRPRPRPNASPRP,-0.015
11,RRIRDRPPRLPRPRPRPVQDPRP,0.0144
12,RRIRDRPPRLPRPRPRPCYVPRP,-0.116
13,RRIRPRPPRLPRPRPRPMCEPRP,-0.0631
14,RRIRMRPPRLPRPRPRPMQCPRP,-0.0018
15,RRIRPRPPRLPRPRPRPYMFPRP,-0.897
16,RRIRSRPPRLPRPRPRPDDPPRP,0.0348
17,RRIRFRPPRLPRPRPRPMGDPRP,-0.0467
18,RRIRCRPPRLPRPRPRPFTKPRP,-0.628
19,RRIRMRPPRLPRPRPRPTYNPRP,-0.361
20,RRIRNRPPRLPRPRPRPGRRPRP,0.79
21,RRIRCRPPRLPRPRPRPPPLPRP,1.15
22,RRIRSRPPRLPRPRPRPITWPRP,-0.284
23,RRIRIRPPRLPRPRPRPTVQPRP,-0.146
24,RRIRPRPPRLPRPRPRPMNAPRP,-0.158
25,RRIRMRPPRLPRPRPRPIRVPRP,0.335
26,RRIRNRPPRLPRPRPRPSPKPRP,0.191
27,RRIRIRPPRLPRPRPRPEIQPRP,-0.171
28,RRIRIRPPRLPRPRPRPGQFPRP,-0.0255
